# In patent publication US20170233449A1 (Teva, published 2017):
# Changes are numbered by the printed parent chain.
# B1: R5D1 IgG1 (antibody, V domains shown)
# VH: EVQLQQSGPEVGRPGSSVKISCKASGYTFTDYIMHWVKQSPGQGLEWIGWIDPEYGRTDYAEKFKKKATLTADTSSSTAYIQLSSLASEDTATYFCARSAHTTGFGFAYWGQGTLVTVSS
# VL: DIQMTQSPASLSASLGETVTIECRASEDIYSNLAWYQQKPGNSPQLLIYDANSLADGVPSRFSASGSGTQFSLKINSLRSEDVASYFCQQYNNYPYTFGAGTKLELKR
# notes: chimeric rat-human IgG1
# B2: R5D1 (rat hybridoma antibody) (antibody, V domains shown)
# VH: B1 VH
# VL: DIQMTQSPASLSASLGETVTIECRASEDIYSNLAWYQQKPGNSPQLLIYDANSLADGVPSRFSASGSGTQFSLKINSLRSEDVASYFCQQYNNYPYTFGAGTKLELK
# notes: tested as rat hybridoma supernatant; kappa light chain
# B3: R7F11 (rat hybridoma antibody) (antibody, V domains shown)
# VH: QIQLVQSGPGLKKPGESVKISCKASGYTFTDYSMHWVKQAPGKGLQWMGWINTYSGKPTYAADFKGRFVFSLEASASTANLQISNLKNEDTATYFCARCYDGTFYYDPMDAWGQGTSVTVSS
# VL: NIVLTQSPATLSVTPGESVSLSCRASQSIGTSIHWYQQKSNESPRLLIRYASQSISGIPSRFSGSGSGTDFTLSINRVESEDFSIYYCQQSYSSLVTFGSGTKLEIK
# notes: as for B2
# B4: R5E8 IgG1 (antibody, V domains shown)
# VH: EVQLQQSGPEVGRPGSSVKISCKASGYIFTDYIMHWVKQSPGQGLEWIGWIDPEYGSTDYAEKFKKKATLTADTSSSTAYIQLSSLTSEDTATYFCARVAIITTVASGGFAYWGQGTLVTVSS
# VL: DIVMTQGALPNPVPSGESASITCQSSESLLHSNGKTYLNWYLQRPGQSPQLLIYWMSTRAAGVSDRFSGSGSGTDFTLTISGVEAEDVGVYYCQQFLEYPPTFGSGTKLEIKR
# notes: chimeric rat-human IgG1
# B5: R5E8 (rat hybridoma antibody) (antibody, V domains shown)
# VH: B4 VH
# VL: DIVMTQGALPNPVPSGESASITCQSSESLLHSNGKTYLNWYLQRPGQSPQLLIYWMSTRAAGVSDRFSGSGSGTDFTLTISGVEAEDVGVYYCQQFLEYPPTFGSGTKLEIK
# notes: as for B2
# B6: X910/12 FAb (Fab, V domains shown)
# VH: EVQLVQSGAEVKKSGASVKVSCKASGYTFTDYYIHWVRQAPGQGLEWMGWINPNNGGVTFAQKFQGRVTMTRDTSISTAYMDLSSLRSDDTAVYFCARDIRMSGWLAPFDYWGQGTLVTVSS
# VL: QAVLTQPASLSASPGESARLTCTLPSDINVRYYNIYWYQQKPGSPPRYLLYYYSDSHKDQGSGVPSRFSGSKDTSANTGILLISGLQSEDEADYYCMIWASNGSGVLGGGTQLTVL
# notes: human Fab from E. coli lysate, V5 tag at the C-terminus of the Fab heavy chain
# B7: R10A2 (rat hybridoma antibody) (antibody, V domains shown)
# VH: EVQLQQSGPEVGRPGSSVKISCKASGYTFTDSVMNWVKQSPGQGLEWIGWIDPEYGRTDVAEKFKKKATLTADSSSSTAYIYLSGLTSEDTATYFCARTKYNSGYGFPYWGQGSLVTVSS
# VL: DIVMTQSPTSISISVGERVTMNCKASQNVDSDVDWYQQKTGQSPKLLIYKASNRYTGVPDRFTGSGSGTDFTFTISNMQAEDLAVYYCMQSNTHPRTFGGGTKLELK
# notes: as for B2
# B8: R10A2 IgG1 (antibody, V domains shown)
# VH: B7 VH
# VL: DIVMTQSPTSISISVGERVTMNCKASQNVDSDVDWYQQKTGQSPKLLIYKASNRYTGVPDRFTGSGSGTDFTFTISNMQAEDLAVYYCMQSNTHPRTFGGGTKLELKR
# notes: chimeric rat-human IgG1
# B9: X355/07 IgG1 (antibody, V domains shown)
# VH: QVQLQESGPGLVKPSETLSLTCAVYGGSFSGYYWSWIRQPPGKGLEWIGSIYHSGSTYYNPSLKSRVTISVDTSKNQFSLKLSSVTAADTAVYYCARDLYYYYGMDVWGQGTTVTVSS
# VL: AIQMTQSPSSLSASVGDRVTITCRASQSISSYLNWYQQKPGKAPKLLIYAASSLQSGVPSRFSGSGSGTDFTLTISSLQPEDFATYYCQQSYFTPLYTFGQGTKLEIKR
# notes: human IgG1 from phage-derived Fab
# B10: X913/15 FAb (Fab, V domains shown)
# VH: QVQLVESGGGVVQGGGSLRLSCAASGFTVRSNYMSWVRQAPGKGLEWVSAISGSGDSTYYADSVKGRFTISRDNSKNTLYLQMNSLRAEDTAVYYCAKVAVTTGWYFDLWGRGTLVTVSS
# VL: QAVLTQPASLSASPGESARLTCTLPSDINVRYHNIYWYQEKPGSPPRYLLYYYSDSSKGQGSGVPSRFSGSKDVSTNTGILVISGLQSEDEAEYYCMTWSSNGSGVFGGGTQLTVL
# notes: as for B6
# B11: X355/02 IgG1 (antibody, V domains shown)
# VH: QLQLQESGPGLVKPSETLSLTCTVSGGSISSSSYYWSWIRQHPGKGLEWIGYIYYSGSTNYNPSLKSRVTISVDTLKNQISLRLTSVTAADTAVYYCARVGGAGGWPMDVWGQGTTVTVSS
# VL: QAVLTQPASLSASPGESARLTCTLPSDINVRYYNIYWYQQKPGSPPRYLLYYYSDSHKGQGSGVPSRFSGSKDVSTNSGILLISGLQSEDEADYYCMTWSSNGSGVFGGGTQLTVLG
# notes: as for B9
# B12: X355/04 FAb (Fab, V domains shown)
# VH: QVQLVQSGAEVKKPGSSVKVSCKASGGTFSSYAISWVRQAPGQGLEWMGGIIPIFGTANYAQKFQGRVTITADESTSTAYMELSSLRSEDTAVYYCARDSSSWYFTYGYFQHWGQGTLVTVSS
# VL: DVVMTQSPLSLPVTPGEPASISCRSSQSLLNSNGYNYLEWYVQKPGQSPQLLIFLGSNRASGVPDRFSGSGSGTDFTLKINRVEAEDVGVYYCMQALQSPLTFGGGTKVEIK
# notes: as for B6
# B13: X355/01 FAb (Fab, V domains shown)
# VH: QVQLVQSGAEVKKPGSSVKVSCKASGGNFISYSISWVRQAPGKRLEWMGWIIPIFGTTTYVQKFQGRVTITADESTSTAYMELSSLRSEDTAVYYCARVKYGSGSYYPNNWFDPWGQGTLVTVSS
# VL: EIVLTQSPATLSASPGERATLSCRASQSISSNLAWYQQKPGQAPRLLIQDSSTRATGIPARFSGSGSGTEFTLTISSLQSEDFAVYYCQQSDNWPLTFGGGTKVDIK
# notes: as for B6
# B14: R7H11 (rat hybridoma antibody) (antibody, V domains shown)
# VH: QVQLKESGPGLLLSSETLSLTCTVSGFSLTSYEVSWVRQLPGRGLEWMGRVWIGGDTDYNSDLKSRLSISRDIAKSQVFLKMSNLKTEDTGTYYCARAYGFNYWSFDFWGPGTMVTVSS
# VL: GQFTLTQPKSVSGSLRSTITIPCERSSGDIGDNYVTWYQQHLGRPPLNVIYADDQRPSEVSDRFSGSIDSSSNSASLTITNLQMDDEADYFCQSYDSNTDIIFGGGTKVTVL
# notes: tested as rat hybridoma supernatant; lambda light chain
# B15: R10B10 (rat hybridoma antibody) (antibody, V domains shown)
# VH: QVQLKESGPGLVQPSETLSLTCTVSGFSLTSYGVNWVRQPPGKGLEWMGRIWNDGSIDYNSALKSRLSISRDTSKGQVFLKMNSLQTEDTAIYFCARGPYNNYWYFDFWGPGTMVTVLS
# VL: B14 VL with T36S, L47I, T99I, V109L
# notes: as for B14
# Tests used:
# [1] = target: T1, human CD38 extracellular domain (ECD), tagged (human, Avitag biotinylated (in the ELISAs)); test: SPR (Biacore T200), antibody captured on Protein A, CD38 ED as analyte, 1:1 Langmuir fit;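 also: CM5 sensor chip in HBS-P buffer at pH 7.4, antibody loaded at 5 µg/mL, responses corrected against a blank reference flow cell before fitting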
# T1 construct: also called human CD38 ED; biotinylated human CD38
# Procedure: (§1) Briefly, using a Biacore T200, Protein A was immobilized onto Flow Cell (FC) 1 (FC1) and FC2 (or alternatively FC3 and FC4) of a CM5 research grade sensor chip using amine coupling, giving approximately 2000 RU. FC1 was used as a blank throughout the experiments. The experiments were run in HBS-P buffer (0.01 M HEPES pH 7.4, 0.15 M NaCl, 0.005% v/v Surfactant P20). At a flow rate of 20 μl/min, 20 μl of 5 μg/mL of antibody was passed over FC2. […] Regeneration of the surface was performed using 10mM Glycine, pH 1.0. The FC1 sensorgram data was subtracted from FCS and the curves were fitted using a 1:1 Langmuir equation to generate the kd, kₐ and KD values.
# [2] = target: T2, cynomolgus monkey CD38 extracellular domain (ECD), tagged (cynomolgus monkey, Avitag biotinylated (in the ELISAs)); test: as above
# T2 construct: also called cynomolgus monkey CD38 ED
# T2 chain: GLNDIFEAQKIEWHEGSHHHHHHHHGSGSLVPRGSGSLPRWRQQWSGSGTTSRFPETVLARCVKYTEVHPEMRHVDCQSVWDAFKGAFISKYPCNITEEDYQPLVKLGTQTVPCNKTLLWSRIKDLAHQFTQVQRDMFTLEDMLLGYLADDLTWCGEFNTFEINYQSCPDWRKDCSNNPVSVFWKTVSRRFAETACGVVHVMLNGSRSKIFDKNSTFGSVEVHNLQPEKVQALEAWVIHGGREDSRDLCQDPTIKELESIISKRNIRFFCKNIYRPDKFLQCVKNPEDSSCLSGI
# Procedure: as §1
# human CD38 on cells = human CD38 on cells (human, UniProt P28907 1-300); test: flow cytometry, hybridoma supernatant on RPMI-8226 cells; background MFI average 153
# Procedure: Viable RPMI-8226 cells (2×10⁵, as judged by trypan blue exclusion) were incubated with 100 μL of rat hybridoma supernatant for 20 minutes on ice in the dark. Cells were washed twice with FACS buffer (1× PBS plus 1% FCS) before incubation for 20 minutes in 100 μl of FACS buffer containing anti-rat IgG-FITC conjugate (Sigma-Aldrich). After washing cells in FACS buffer, they were resuspended in FACS buffer and analysed for antibody-binding by flow cytometry on a FACS Canto (BD Biosciences, San Diego, Calif.) using EV, side scatter and FL-1 gating. Results were expressed as mean fluorescent intensity (MFI).
# [3] = target: T1, human CD38 extracellular domain (ECD), …; test: ELISA, hybridoma supernatant coated, biotinylated CD38 ED in solution
# Procedure: (§2) Following incubation for 1 hour at room temperature, plates were washed as described previously. To one well of each rat antibody duplicate well was added 0.1 μg of biotinylated human CD38 in a final volume of 100 μL 1× PBS. To the second well of each rat antibody duplicate well was added 0.1 μg of biotinylated cynomolgus monkey CD38 ED in a final volume of 100 μL 1× PBS. Plate wells were washed as described previously prior to detection of bound biotinylated CD38 ED using a Streptavidin-HRP conjugate (BD Biosciences, San Diego, Calif.). Plates were washed as above to remove unbound Streptavidin-HRP conjugate and the assay signal developed by incubation with 50 μL 3,3′,5,5′-Tetramethylbenzidine (Sigma-Aldrich) and quenching with 50 μL 1 M HCl. Assay signals were read at A₄₅₀ nm using a microplate reader (BMG Labtech, Cary, N.C.).
# [4] = target: T2, cynomolgus monkey CD38 extracellular …; test: as above
# Procedure: as §2
# [5] = target: T1, human CD38 extracellular domain (ECD), …; test: ELISA, biotinylated CD38 ED on streptavidin plates, FAb lysate, anti-V5-HRP
# Procedure: (§3) Plates were then washed and individual FAb samples (prepared as described above) were added to individual wells on the ELISA plates. FAbs were allowed to bind the captured CD38 ED for an hour at room temperature and then washed three times with PBS-T (1× PBS supplemented with 0.1% Tween®20). FAbs that bound to CD38 ED were detected by incubation for 30 minutes at room temperature with an anti-V5-HRP conjugated antibody (Invitrogen, Carlsbad, Calif.) to detect the V5 tag fused to the C-terminus of the FAb heavy chain. Plates were washed to remove unbound antibody and the assay signal developed by incubation with 50 μL 3,3′,5,5′-Tetramethylbenzidine (Sigma-Adrich, St. Louis, Mo.) and quenching with 50 μL 1 M HCl. Assay signals were read at A450 nm using a microplate reader (BMG Labtech). Results were expressed as the raw A450 nm value, where any signal 2-fold greater than the average assay background was defined as ‘positive’.
# (§4) In later assays FAb cross-reactivity with cynomolgus monkey CD38 ED was assessed by coating biotinylated cynomolgus monkey CD38 ED onto streptavidin coated ELISA plates and proceeding as described above.
# [6] = target: T2, cynomolgus monkey CD38 extracellular …; test: as above
# Procedure: as §3, §4
Binder,Kd [1] [nM],koff [1] [s⁻¹],kon [1] [M⁻¹ s⁻¹],Kd [2] [nM],koff [2] [s⁻¹],kon [2] [M⁻¹ s⁻¹],MFI (human CD38 on cells) [MFI],other results
B1,1,0.000239,243000,1,0.0011,1.11e+06,–,–
B2,–,–,–,–,–,–,12200,–
B3,–,–,–,–,–,–,11900,binding result [3]: binds; binding result [4]: binds
B4,2.9,0.00118,405000,4.2,0.0019,452000,–,–
B5,–,–,–,–,–,–,10600,–
B6,–,–,–,–,–,–,–,binding result [5]: binds; binding result [6]: binds
B7,–,–,–,–,–,–,4470,–
B8,0.7,0.000479,660000,2.2,0.00193,898000,–,–
B9,11.4,0.00132,115000,12.2,0.0138,1.13e+06,–,–
B10,–,–,–,–,–,–,–,binding result [5]: binds; binding result [6]: binds
B11,7.6,0.000892,118000,27.4,0.00228,83400,–,–
B12,–,–,–,–,–,–,–,binding result [5]: binds; binding result [6]: binds
B13,–,–,–,–,–,–,–,binding result [5]: binds; binding result [6]: binds
B14,–,–,–,–,–,–,680,–
B15,–,–,–,–,–,–,858,–
